In patent publication US20220153864A1 (Pieris, published 2022):

Columns and labels:
[1] = target: T1, recombinant cynomolgus GPC3 (cyGPC3) (R&D Systems) (cynomolgus, UniProt A0A2K5VK50 24-558); test: ELISA, cyGPC3 coated
Procedure: (§1) Recombinant huGPC3 (R&D Systems) at the concentration of 1 μg/mL in PBS was coated overnight on microtiter plates at 4° C. After five washes with 100 μL PBS-0.05% T (PBS supplemented with 0.05% (v/v) Tween 20), the plates were blocked with 2% BSA (w/v) in PBS-0.1% T (PBS-0.1% T-2% BSA) for 1 h at room temperature. After washing with 100 μL PBS-0.05% T (PBS supplemented with 0.05% (v/v) Tween 20) five times, exemplary fusion proteins (SEQ ID NOs: 87 and […] and CD137Ac1-Fusion 1 to 7) or the GPC3 antibody as include in the fusion proteins (SEQ ID NOs: 81 and 82) at different concentrations were added to the wells and incubated for 1 h at room temperature, followed by another wash step. Bound molecules under study were detected by incubation with 1:5000 diluted anti-human IgG Fc-HRP (Jackson Laboratory) in PBS-0.1% T-2% BSA. After an additional wash step, fluorogenic HRP substrate (QuantaBlu, Thermo) was added to each well and the fluorescence intensity was detected using a fluorescence microplate reader.
The same ELISA setup was also employed to determine the binding potency of fusion proteins to cynomolgus GPC3 and huCD137, where recombinant cyGPC3 (R&D Systems) or huCD137-His (recombinant human CD137 with C-terminal polyhistidine tag, R&D Systems) was instead coated on a microtiter plate. The testing agents were similarly titrated and bound agents were detected via anti-NGAL-HRP. […]

[2] = target: T2, human GPC3 expressed on cells (SK-Hep1::huGPC3; HepG2, Hep3B and MKN-45 tumor cells) (human, UniProt P51654 25-554); test: flow cytometry on HepG2 tumor cells (GPC3 high)
T2 construct: whole, on cells; also called GPC3-positive tumor cells; human GPC3-expressing cells
T2 sequence (P51654 25-554 limits assumed): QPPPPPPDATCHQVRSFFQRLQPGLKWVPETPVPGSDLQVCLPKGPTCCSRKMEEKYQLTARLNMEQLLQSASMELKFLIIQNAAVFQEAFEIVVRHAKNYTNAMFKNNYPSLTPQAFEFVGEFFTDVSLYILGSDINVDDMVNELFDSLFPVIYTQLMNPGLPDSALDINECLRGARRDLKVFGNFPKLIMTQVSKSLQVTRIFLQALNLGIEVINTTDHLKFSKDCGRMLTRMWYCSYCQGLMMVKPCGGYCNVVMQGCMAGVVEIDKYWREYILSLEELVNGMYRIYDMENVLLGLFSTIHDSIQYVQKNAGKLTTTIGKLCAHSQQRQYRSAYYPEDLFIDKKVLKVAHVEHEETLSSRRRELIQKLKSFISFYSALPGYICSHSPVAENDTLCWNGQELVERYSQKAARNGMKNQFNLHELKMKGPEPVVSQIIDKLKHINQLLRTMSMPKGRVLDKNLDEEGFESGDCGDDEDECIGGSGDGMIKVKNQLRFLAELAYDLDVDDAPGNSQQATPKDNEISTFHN
Procedure: (§2) 5×10⁴ cells per well were incubated for 1 h in ice-cold PBS containing 5% fetal calf serum (PBS-FCS). A dilution series of the testing molecule were added to the cells and incubated for 1 h on ice. Cells were washed twice with PBS and then incubated with a goat anti-hlgG Alexa647-labeled antibody or goat anti-hlgG Alexa488-labeled antibody for 30 min on ice. Cells were subsequently washed and analyzed using iQue Flow cytometer (Intellicyte Screener). Mean geometric fluorescent signals were plotted and fitted with Graphpad software. The geometric means of the fluorescence intensity were used to calculate EC₅₀ values using a four-parameter logistic regression with bottom fixed to background.
(§3) For flow cytometric analysis, tumor cell lines with different GPC3 expression levels (high to moderate expression: HepG2>Hep3B>MKN-45) and GPC3 negative cell line NCI-N87 were incubated with an exemplary fusion protein SEQ ID NOs: 87 and 82, the GPC3 antibody or the CD137 specific lipocalin mutein (Fc fusion) as included in the fusion protein (SEQ ID NOs: 81 and 82 and SEQ ID NO: 98, respectively), a reference CD137 antibody SEQ ID NOs: 26 and 27, or an isotype control (SEQ ID NO: 24 and 25), and detected using a fluorescently labeled anti-human IgG antibody as described in Example 6.

[3] = target: T2, human GPC3 expressed on cells …; test: flow cytometry on Hep3B tumor cells (GPC3 positive)
Procedure: as §2, §3

[4] = target: T2, human GPC3 expressed on cells …; test: flow cytometry on MKN-45 tumor cells (GPC3 moderate)
Procedure: as §2, §3

[5] = target: T3, recombinant human GPC3 (huGPC3) (R&D Systems) (human, UniProt P51654 25-559); test: ELISA, huGPC3 coated, detection anti-human IgG Fc-HRP
T3 construct: also called biotinylated huGPC3
T3 sequence (P51654 25-559 limits assumed): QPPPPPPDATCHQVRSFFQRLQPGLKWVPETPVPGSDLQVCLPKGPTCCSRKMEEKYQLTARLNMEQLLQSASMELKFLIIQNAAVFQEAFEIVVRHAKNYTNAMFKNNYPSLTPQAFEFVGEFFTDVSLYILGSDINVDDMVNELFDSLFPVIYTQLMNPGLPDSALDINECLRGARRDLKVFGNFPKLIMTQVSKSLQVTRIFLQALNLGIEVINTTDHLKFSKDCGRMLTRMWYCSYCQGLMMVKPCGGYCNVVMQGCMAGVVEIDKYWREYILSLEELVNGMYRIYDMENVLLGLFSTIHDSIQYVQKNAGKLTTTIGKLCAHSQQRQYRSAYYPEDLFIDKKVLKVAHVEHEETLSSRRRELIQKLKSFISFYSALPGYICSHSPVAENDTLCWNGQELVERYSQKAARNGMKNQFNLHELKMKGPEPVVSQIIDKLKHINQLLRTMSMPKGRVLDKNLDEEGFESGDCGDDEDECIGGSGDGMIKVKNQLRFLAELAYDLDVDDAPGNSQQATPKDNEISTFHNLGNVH
Procedure: as §1
Exemplary results are depicted in FIG. 2A-2D, together with the fit curves resulting from a 1:1 binding sigmoidal fit, where the EC₅₀ value and the maximum signal were free parameters, and the slope was fixed to unity.

[6] = target: T2, human GPC3 expressed on cells …; test: flow cytometry on SK-Hep1::huGPC3 cells, anti-human IgG detection
Procedure: (§4) For flow cytometric analysis, respective cell lines were incubated with an exemplary fusion protein (SEQ ID NOs: 87 and 82), the GPC3 antibody or the CD137 specific lipocalin mutein (Fc fusion) as included in the fusion protein (SEQ ID NOs: 81 and 82 and SEQ ID NO: 98, respectively), a reference CD137 antibody SEQ ID NOs: 26 and 27, or an isotype control (SEQ ID NOs: 24 and 25) and detected using a fluorescently labeled anti-human IgG antibody in FACS analysis as described in the following:
as §2

[7] = target: T1, recombinant cynomolgus GPC3 (cyGPC3) …; test: SPR (Biacore T200), binder captured by anti-human IgG Fc, cyGPC3 as analyte, 1:1 model
Procedure: (§5) The anti-human IgG Fc antibody (GE Healthcare) was immobilized on a CM5 sensor chip using standard amine chemistry: the carboxyl groups on the chip were activated using 1-ethyl-3-(3-dimethylaminopropyl)-carbodiimide (EDC) and N-hydroxysuccinimide (NHS). Subsequently, anti-human IgG Fc antibody solution (GE Healthcare) at a concentration of 25 μg/mL in 10 mM sodium acetate (pH 5.0) was applied at a flow rate of 5 μL/min until an immobilization level of 6000-10000 resonance units (RU) was achieved. Residual non-reacted NHS-esters were blocked by passing a solution of 1M ethanolamine across the surface. The reference channel was treated in an analogous manner. Subsequently, testing fusion proteins (SEQ ID NOs: 87 and 82 and CD137Ac1-Fusion 1) or the GPC3 antibody as included in the fusion protein (SEQ ID NOs: 81 and 82) at 0.2 μg/ml in HBS-EP+ buffer was captured by the anti-human IgG-Fc antibody at the chip surface for 180 s at a flow rate of 10 μL/min. After each capture step, the needle was washed.
(§6) The binding assay was carried out with a contact time of 180 s, a dissociation time of 900 s, and a flow rate of 30 μL/min. After each injection, the needle was cleaned with 40 mM NaOH+20% isopropanol. All measurements were performed at 25° C. […] Prior to the protein measurements, three startup cycles were performed for conditioning purposes. Data were evaluated with Biacore T200 Evaluation software (v2.0). Double referencing was used and the 1:1 binding model was used to fit the raw data.

[8] = target: T3, recombinant human GPC3 (huGPC3) (R&D …); test: SPR (Biacore T200), binder captured by anti-human IgG Fc, huGPC3 as analyte, 1:1 model
Procedure: as §5, §6

[9] = target: T4, human CD137 expressed on cells (Flp-In-CHO::huCD137; NFkB-luc2/CD137 Jurkat cells) (human, UniProt Q07011 24-255); test: flow cytometry, CHO cells transfected with human CD137, detection labelled anti-human IgG, GeoMean RL1-H [upper graph]
T4 construct: whole, on cells; also called human CD137-expressing cells
T4 sequence (Q07011 24-255): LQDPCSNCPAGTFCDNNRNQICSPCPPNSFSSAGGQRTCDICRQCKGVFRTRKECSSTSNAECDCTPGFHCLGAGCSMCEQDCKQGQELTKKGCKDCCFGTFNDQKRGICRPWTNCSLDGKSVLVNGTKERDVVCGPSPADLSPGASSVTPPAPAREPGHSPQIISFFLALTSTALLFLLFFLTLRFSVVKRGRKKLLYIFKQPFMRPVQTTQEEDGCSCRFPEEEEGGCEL
Procedure: as §4, §2

[10] = target: T2, human GPC3 expressed on cells …; test: flow cytometry, SK-Hep1 cells transfected with human GPC3, detection labelled anti-human IgG, GeoMean RL1-H [upper graph]
Procedure: as §4, §2

[11] = target: T5, huCD137-His (recombinant human CD137 with C-terminal polyhistidine tag, R&D Systems) (human, UniProt Q07011 24-186); test: ELISA, huCD137-His coated, binder titrated to 100 nM, detection anti-NGAL-HRP per paragraph 342 (the antibody itself carries no lipocalin mutein) [upper graph]
T5 construct: also called biotinylated huCD137-His; not shown: C-terminal polyhistidine tag

[12] = target: T4, human CD137 expressed on cells …; test: cell-based or functional assay
[13] = target: T4, human CD137 expressed on cells …; test: flow cytometry on Flp-In-CHO::huCD137 cells, anti-human IgG detection
Procedure: as §4, §2

[14] = target: T2, human GPC3 expressed on cells …; test: flow cytometry, SK-Hep1 cells transfected with human GPC3, detection labelled anti-human IgG, GeoMean BL1-H [lower graph]
Procedure: as §4, §2

B1: GPC3 antibody as included in the fusion protein (SEQ ID NOs: 81 and 82) (antibody, human IgG4 S228P, kappa, F234A L235A, V domains shown)
VH: QVQLVQSGAEVKKPGASVKVSCKASGYTFTDYEMHWVRQAPGQGLEWMGALDPKTGDTAYSQKFKGRVTLTADKSTSTAYMELSSLTSEDTAVYYCTRFYSYTYWGQGTLVTLVS
VL: DVVMTQSPLSLPVTPGEPASISCRSSQSLVHSNRNTYLHWYLQKPGQSPQLLIYKVSNRFSGVPDRFSGSGSGTDFTLKISRVEAEDVGVYYCSQNTHVPPTFGQGTKLEIKR
notes: also called GPC3 specific antibody
B1 showed an EC50 [1] of 0.23 nM, an EC50 [2] of 16.7 nM and an EC50 [3] of 6.35 nM. The EC50 [4] was 1.46 nM, the EC50 [5] was 0.13 nM and the EC50 [6] was 19.9 nM. For the same binder, the Kd [7] was 0.737 nM, the koff [7] was 0.000151 s⁻¹ and the kon [7] was 205000 M⁻¹ s⁻¹. For the same binder, the Kd [8] was 0.686 nM, the koff [8] was 0.000248 s⁻¹ and the kon [8] was 361000 M⁻¹ s⁻¹. The binding result [9] was “no binding (tested: 100 nM)”, the “EC50 (read off the curve)” value [10] was ~5 nM and the binding result [11] was “no binding (tested: 100 nM)”.

B2: reference CD137 antibody (SEQ ID NOs: 26 and 27) (antibody, human IgG4 S228P, kappa, V domains shown)
VH: QVQLQQWGAGLLKPSETLSLTCAVYGGSFSGYYWSWIRQSPEKGLEWIGEINHGGYVTYNPSLESRVTISVDTSKNQFSLKLSSVTAADTAVYYCARDYGPGNYDWYFDLWGRGTLVTVSS
VL: EIVLTQSPATLSLSPGERATLSCRASQSVSSYLAWYQQKPGQAPRLLIYDASNRATGIPARFSGSGSGTDFTLTISSLEPEDFAVYYCQQRSNWPPALTFGGGTKVEIKR
B2 was tested, and the “EC50, CD137 Bioassay (NFkB-luc2/CD137 Jurkat cells co-cultured with Hep3B)” value [12] was 1.39 nM, the “EC50, CD137 Bioassay (NFkB-luc2/CD137 Jurkat cells co-cultured with HepG2)” value [12] was 0.94 nM and the “EC50, CD137 Bioassay (NFkB-luc2/CD137 Jurkat cells co-cultured with MKN-45)” value [12] was 1.47 nM. The “EC50, CD137 Bioassay (NFkB-luc2/CD137 Jurkat cells co-cultured with NCI-N87)” value [12] was 1.67 nM, the EC50 [13] was 9.61 nM and the binding result [14] was “no binding (tested: 500 nM)”.
